The nature of the data set: yeast display, Sf9 membrane polyspecificity reagent, FACS + sequencing; frameworks hold sequencing errors. The gist of the method:
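Galactose induction of a Saccharomyces cerevisiae BJ5465 synthetic nanobody display library ran 36–48 hours. The cells were then stained for 1 hour at 4 °C with 10% biotinylated, detergent-solubilized Sf9 membrane reagent, pulled down on streptavidin microbeads and FACS-sorted into low and high (top ~1%) gates on expression and reagent-binding fluorescence. Labels for polyreactivity follow the gate of origin.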
“QVQLVESGGGLVQAGGSLRLSCAASGFTFNNYAMGWYRQAPGKERELVAAISSVGRTYYADSVKGRFTISRDNAKNTVYLQLNSLKPEDTAVYYCAVVYPARGSGNDSWGQGTQVTLSS”: the “polyreactivity (PSR sort gate)” value is on record as “high polyreactivity”. With “QVQLVESGGGLVQAGGSLRLSCAASGFTFNPNAMGWYRQAPGKERELVAAITWSSGRTYYADSVKGRFTISRDNAKNTVYLQMNSLKPEDTAVYYCAARGYSYNYDYWGQGTQVTVSS”, the “polyreactivity (PSR sort gate)” value is “high polyreactivity”.

Regarding “QVQLVESGGGLVQAGGSLRLSCAASGFTFNRNAMGWYIQAPGKERELVAAISWSGGSTYYADSVKGRFTISRDNAKNTVYLQMNSLKPEDTAVYYCAKGYRRVYGPFYYWGQGTQVTVSS”, the “polyreactivity (PSR sort gate)” value was “low polyreactivity”. As to “QVQLVESGGGLVQAGGSLRLSCAASGFTFNRYAMGWYRQAPGKERELVAAISRSTATTYYADSVKGRFTISRDNAKNTVYLQMNSLKPEDTAVYYCNAPQRYWPPYGYWGQGTQVTVSS”, the “polyreactivity (PSR sort gate)” value is reported as “high polyreactivity”.

As to “QVQLVESGGGLVQAGGSLRLSCAASGFTFNWYAMAWYRQAPGKERELVATINSGGSTYYADSVKGRFTISRDNAKNTVYLQMISLKPEDTAVYYCNRTHRRRYVKSAYIYWGQGTQVTVSS”, the “polyreactivity (PSR sort gate)” value is recorded as “low polyreactivity”.

Consider “QVQLVESGGGLVQAGGSLRLSCAASGFTFNYYAMGGYRQAPGKERELVAAIDSGTSTNYADSVKGRFTISRDNAKNTVYLQMNSLKPEDTAVYYCAADPGIFDGIFDYWGQGSQVTVSS”, for which the “polyreactivity (PSR sort gate)” value is recorded as “low polyreactivity”. Turning to “QVQLVESGGGLVQAGGSLRLSCAASGFTFNYYAMGWYRQAPGTERELVAAITSSGGSTYYADSVKGRFTISRDNAKNTVYLLMNSLKPEDTAVYYCNAAVYDHRYIYGFDYWGQGTQVTVSS”, the “polyreactivity (PSR sort gate)” value was “high polyreactivity”. As for “QVQLVESGGGLVQAGGSLRLSCAASGFTFPAYVMRWYRQAPGKERELVAAISKSGGSTYYADSVKGRFTISRDNAKNTVYLQMNCLKPEDTAVYYCAKYWVTRRFQYDYWGQGTQVTVSS”, the “polyreactivity (PSR sort gate)” value is “high polyreactivity”. Regarding “QVQLVESGGGLVQAGGSLRLSCAASGFTFPDYAMGWYRQAPAKERELVAAISSDGSTYYADSVNGRFTISRDNAHNTVYLQMNSLKPEDTAVYYCAAYVVWLYGYDYWGQGTQVTVSS”, the “polyreactivity (PSR sort gate)” value is on record as “low polyreactivity”. With “QVQLVESGGGLVQAGGSLRLSCAASGFTFPGYARGWYRQAPGKERELVAAISRGGAGTYYADSVKGRFTISRDNAKNTVYLQMNSLKPEDTAVYYCAAVYYVDYPDGNYEYWGQGTQVTVSS”, the “polyreactivity (PSR sort gate)” value is recorded as “high polyreactivity”. Take “QVQLVESGGGLVQAGGSLRLSCAASGFTFPGYTMGWYRQAPGKERELVAAITWSGGSTYYADSVKGRFTISRDTAKNTVYLQMNSLKPEDTAVYYCAAKYGAYYGNRDYWGQGTQVTVSS”: the “polyreactivity (PSR sort gate)” value is “high polyreactivity”. Take “QVQLVESGGGLVQAGGSLRLSCAASGFTFPHYAMGRYRQAPGKERELVAAINGGDTRTYYADSVKGRFTSSRDNAKNTVYLQRNSLKPEDTAVYYCAADREAGGTRLSRDYYWGQGTQVTVSS”: the “polyreactivity (PSR sort gate)” value is reported as “high polyreactivity”. As for “QVQLVESGGGLVQAGGSLRLSCAASGFTFPKYAMGWYRQAPGKERELVAAISYRGGSTYYADSVKGRFTISRDNAKNTVYLQMNSLKPEDTAVYYCAAEIPHAPYEYWGQGTQVTVSS”, the “polyreactivity (PSR sort gate)” value is listed as “high polyreactivity”. In the case of “QVQLVESGGGLVQAGGSLRLSCAASGFTFPLYAMGWYRQAPGKERELVAVISRSGGSTYYADSVKGRFTISRDNAKNTVYLQMNSLKPEDTAVYYCATRRRPQYNKYDYWGQGTQVTVSS”, the “polyreactivity (PSR sort gate)” value is listed as “high polyreactivity”. “QVQLVESGGGLVQAGGSLRLSCAASGFTFPSNAMGWYRQAPGKERELVAAISSTDSTNYADSVKGRFTISRDNAKNTVYFQMNSLKPEDTAVYYCAKRYPRYRYNTRGNDYWGQGTQVTVSS”: the “polyreactivity (PSR sort gate)” value is on record as “low polyreactivity”. For the sequence “QVQLVESGGGLVQAGGSLRLSCAASGFTFPSNAMGWYRQAPGKERELVAAISSTDSTNYADSVKGRFTISRDNAKNTVYLQMNSLKPEDTAVYYCNADRDDDYDYWGQGTQVTVSS”, the “polyreactivity (PSR sort gate)” value was “low polyreactivity”.

Take “QVQLVESGGGLVQAGGSLRLSCAASGFTFPSYTMGWYRQAPGKERELVAAISRSDGTTYYADSVKGRFTISRDNAKNTVYLQMNSLKPEDTAVYYCNKAYKRYGYHYDYWGQGTQVTVSS”: the “polyreactivity (PSR sort gate)” value is given as “high polyreactivity”. Consider “QVQLVESGGGLVQAGGSLRLSCAASGFTFPVYAMGWSRQAPGKERELVAAISWSGGGTYYADSVKGRFTISRDNAKNTVYVQMNSLKPEDTAVYYCAVEDLSHAYVQHYRYGYGYWGQGTQVTVSS”, for which the “polyreactivity (PSR sort gate)” value was “low polyreactivity”. Then “QVQLVESGGGLVQAGGSLRLSCAASGFTFPVYVLGWYRQAPGKERELVAAISGGGGTSYADSVKGRFTISRDNAKNTVYLQMNSLKPEDTAVYYCAADYRTYVYVYGFRHFDYWGQGTQVTVSS”, with “low polyreactivity”. Under “QVQLVESGGGLVQAGGSLRLSCAASGFTFPWNVMGWYRQAPGKERELVAAITYDGGGTYADSVKGRFTISRDNAKNTVYLQMNSLKPEDTAVYYSNADLIYGEEYDYWGQGTQVTVSS” stands “low polyreactivity”; under “QVQLVESGGGLVQAGGSLRLSCAASGFTFPWYAMVWYRQSPGKERELVASISYRGDSTYYADSVKGRFTISRDNAKNTVNLQMNILKPEDTAVYYCNKLLASYYLPGFDYWGQGTQVTVSS”, “low polyreactivity”; under “QVQLVESGGGLVQAGGSLRLSCAASGFTFPYNAMGWYRQAPGKERELVAAISSGDSTYYADSVKGRFTISRDNAKNTVYLQMKSLKPEDTAVYYCDAYPSLYYTKYDYWGQGTQVTVSS”, “high polyreactivity”. Then “QVQLVESGGGLVQAGGSLRLSCAASGFTFPYNAMGWYRQAPGKERELVAAISWSGGSTYYADSVKGRFTISRDNAKNTVYLQMNSLKPEDTAVYYCAASYWRIPMEYWGQVTQVTVSS”, with “high polyreactivity”; and “QVQLVESGGGLVQAGGSLRLSCAASGFTFPYYAMGRYRQAPGKERELVAAITRSGGSTNYADSVKGRFTISRDNAKNTVYLQMNSLKPEDTAVYYCNAPPGYSSTRNGYWGQGTQVTVSS”, with “high polyreactivity”; and “QVQLVESGGGLVQAGGSLRLSCAASGFTFPYYAMGWYRPAPGKERELVAAISRNGGSTYYADSVKGRFTISRDNAKNTVYFQMNRLKPEDTAVYYCNKKWLGWADPSLDKRYDYWGQGTQVTVSS”, with “high polyreactivity”. Consider “QVQLVESGGGLVQAGGSLRLSCAASGFTFPYYAMGWYRQALGKERELVAGISRGGSTYYADSVKGRFTISRDNAKNTVYLQMNSLKPEDTAVYYCAADRYIGQYTYYYWGQGTQVTVSS”, for which the “polyreactivity (PSR sort gate)” value was “high polyreactivity”. Turning to “QVQLVESGGGLVQAGGSLRLSCAASGFTFPYYAMGWYRQAPGKERELVAAISSSGGRTYYADSVKGRFTISRDNAKNTVYLQMNSLKPEDTAVYYCAVRGKAYRRLRDYWGQGTQVTVSS”, the “polyreactivity (PSR sort gate)” value was “high polyreactivity”. On to “QVQLVESGGGLVQAGGSLRLSCAASGFTFPYYAQGWYRQAPGKETELVATISTGSGVSTYDADSVKGRFTISRDNAKNTVYLQMNSLKPEDTAVYYCAAVFGWRRYVTYDYWGQGTQVTVSS”, for which the “polyreactivity (PSR sort gate)” value was “low polyreactivity”. Take “QVQLVESGGGLVQAGGSLRLSCAASGFTFPYYTMGWYRQAPGKERELVAAITSSGGSTYYADSVKGRFTISRDNAKNTVYLQMNSLKPEDTAVYYCNAAVYAHRYIYGFDYWGQGTQVTVSS”: the “polyreactivity (PSR sort gate)” value was “high polyreactivity”.

As for “QVQLVESGGGLVQAGGSLRLSCAASGFTFPYYTMGWYRQAPGKERELVATISYSGGRTYYADSVKGRFTISRDNAKNTVYLQMNSLKPEDTAVYYCNKVVRLQSRYDYWGQGTQVTVSS”, the “polyreactivity (PSR sort gate)” value is reported as “high polyreactivity”.

Turning to “QVQLVESGGGLVQAGGSLRLSCAASGFTFQAYAMGWYRQAPGKERELVAAIRSRGDSTYYADSVKGRFTISRDNAKNTVYLQMNSLKPEDTAVYYCNVLGYSYWGQGTQVTVSS”, the “polyreactivity (PSR sort gate)” value is given as “high polyreactivity”. For the sequence “QVQLVESGGGLVQAGGSLRLSCAASGFTFQFNAMGWYRQAPGKERELVAAITWSGDSTYYADSVKGRFTISRDNAKNTVYLQMISLKPEDTAVYYCNADYGWVDTYTNYDYWGQGTQVTVSS”, the “polyreactivity (PSR sort gate)” value is “low polyreactivity”.

Take “QVQLVESGGGLVQAGGSLRLSCAASGFTFQGNVMGWYRQAPGKERELVAVITSGGSTYYADSVKGRFTISRDNAKNTVYLQMNSLKPEDTAVYYCAARAYTWGPAGQVEKYYYWGQGTQVTVSS”: the “polyreactivity (PSR sort gate)” value is “high polyreactivity”.

As to “QVQLVESGGGLVQAGGSLRLSCAASGFTFQYNAMGWYRQAPGKERELVAAITWTGTSTYADSVKGRFTISRDNATNTVYLQMNSLKPEDTAVYYCADSYYAPRWFRYDYWGQGTQVTVSS”, the “polyreactivity (PSR sort gate)” value is on record as “low polyreactivity”. Then “QVQLVESGGGLVQAGGSLRLSCAASGFTFQYYPMGWYRQAPGKERELVAAISWSGGSTNYADSVKGRFTISRDNAKNTVYLQMNSLKPEDTAVYYCNAVHYYVEYDYWGQGTQVTVSS”, with “high polyreactivity”. Take “QVQLVESGGGLVQAGGSLRLSCAASGFTFRANAMGWYRQAPGKERELVAAISQSGGRTYYADSVKGRFTISRDNAKNTVYLQMNSLKPEDTAVYYCAAPYSAKELYYRMDYWGQGTQVTVSS”: the “polyreactivity (PSR sort gate)” value is reported as “high polyreactivity”. Then “QVQLVESGGGLVQAGGSLRLSCAASGFTFRANAMGWYRQAPGKERELVAVITGSGGRTYYADSVKGRFTISRDNAKNTVYLQMNSLKPEDTAVYYCNASGRKTNPYDYWGQGTQVTVSS”, with “high polyreactivity”; and “QVQLVESGGGLVQAGGSLRLSCAASGFTFRAYAMGWYRQAPGKASELVATISGRGGSTYYADSVKGRFPISRDNAKNTVYLQMNSLKPEDTAVYYCARRFWSEYVTGVGGYNFWGQGTQVTVSS”, with “high polyreactivity”. Under “QVQLVESGGGLVQAGGSLRLSCAASGFTFRAYAMGWYRQAPGKEREFVAAISRRGGSTSYADSVKGRFTISRDNAKNTVYLQMNSLKPEDTAVYYCAATYQILTTSAHDSWGQGTQVTVSS” stands “high polyreactivity”; under “QVQLVESGGGLVQAGGSLRLSCAASGFTFRAYAMGWYRQAPGKERELVAAISTSGGSTYYADSVKGRFTISRDNAKNTVYLQMNSLKPEDTSVYYCAKRGLQGYWSPYNYWGQGTQVTVSS”, “high polyreactivity”. With “QVQLVESGGGLVQAGGSLRLSCAASGFTFRDNAMGWYRQAPGKERELVAAISKSGGTTYYADSVKGRFTISRDNAKNTVYLQMNSLKPEDTAVYYCNAVNRYSGHSYYWGQGTQVTVSS”, the “polyreactivity (PSR sort gate)” value is “low polyreactivity”.

The values above are taken from the nanobody polyreactivity screen of Harvey et al. (2022).
